T1: IdeR (iron-dependent regulator) (Mycobacterium tuberculosis, UniProt P9WMH1 1-230)
T1 sequence: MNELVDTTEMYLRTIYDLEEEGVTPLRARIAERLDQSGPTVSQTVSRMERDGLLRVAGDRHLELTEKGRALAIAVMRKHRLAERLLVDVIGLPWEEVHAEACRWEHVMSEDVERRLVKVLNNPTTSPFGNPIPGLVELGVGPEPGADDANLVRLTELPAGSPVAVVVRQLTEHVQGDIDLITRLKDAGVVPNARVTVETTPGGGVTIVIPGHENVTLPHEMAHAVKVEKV

B1: DIP2304 motif (FpG) (dsDNA)
DNA 1: TTGGGGTGGCCTATCCTTA
DNA 2: TAAGGATAGGCCACCCCAA
B2: DIP2272 motif (sortase) (dsDNA)
DNA 1: TGTGGGCACACCAACCTAA
DNA 2: TTAGGTTGGTGTGCCCACA
B3: DIP0699 motif (secA) (dsDNA)
DNA 1: TTGTGTTAGCCTAGGCTAA
DNA 2: TTAGCCTAGGCTAACACAA
B4: DIP2161 motif (sidA) (dsDNA)
DNA 1: TTAGGGTAGGCTAATCCAA
DNA 2: TTGGATTAGCCTACCCTAA
B5: negative control motif (dsDNA)
DNA 1: TTTTCATGACGTCTTCTAA
DNA 2: TTAGAAGACGTCATGAAAA
B6: DIP0586 motif (iucA) (dsDNA)
DNA 1: TTAGGGTAGCTTCGCCTAA
DNA 2: TTAGGCGAAGCTACCCTAA

Molecular target: T1, IdeR (iron-dependent regulator)
Test: EMSA; 200 uM Mn2+; 30 pmol IdeR
Conditions: protein: recombinant; tags: 6xHis (pRSET vector); chain copies: 4; label: 32P end label; blunt

**Q.** Does B1 bind?
**A.** binds

**Q.** Does B2 bind?
**A.** binds

**Q.** Does B3 bind?
**A.** binds

**Q.** Does B4 bind?
**A.** binds

**Q.** Does B5 bind?
**A.** no binding

**Q.** Does B6 bind?
**A.** binds
